Laboratory results: US20240190989A1 (BEIGENE SWITZERLAND, published 2024)
Substitutions are numbered along the chain they refer to. Like-named read-outs stand apart in the source and are kept apart here.

Legend:
[1] = biological target: T1, soluble human CEA, amino acids 1-687 of huCEA with C-terminal 6xHis tag (human, UniProt P06731 35-687); test: flow cytometry on MKN45 cells, 2 µg/ml antibody, competitor 20 µg/ml recombinant soluble CEA in solution
T1 construct: also called sCEA; soluble huCEA
T1 sequence: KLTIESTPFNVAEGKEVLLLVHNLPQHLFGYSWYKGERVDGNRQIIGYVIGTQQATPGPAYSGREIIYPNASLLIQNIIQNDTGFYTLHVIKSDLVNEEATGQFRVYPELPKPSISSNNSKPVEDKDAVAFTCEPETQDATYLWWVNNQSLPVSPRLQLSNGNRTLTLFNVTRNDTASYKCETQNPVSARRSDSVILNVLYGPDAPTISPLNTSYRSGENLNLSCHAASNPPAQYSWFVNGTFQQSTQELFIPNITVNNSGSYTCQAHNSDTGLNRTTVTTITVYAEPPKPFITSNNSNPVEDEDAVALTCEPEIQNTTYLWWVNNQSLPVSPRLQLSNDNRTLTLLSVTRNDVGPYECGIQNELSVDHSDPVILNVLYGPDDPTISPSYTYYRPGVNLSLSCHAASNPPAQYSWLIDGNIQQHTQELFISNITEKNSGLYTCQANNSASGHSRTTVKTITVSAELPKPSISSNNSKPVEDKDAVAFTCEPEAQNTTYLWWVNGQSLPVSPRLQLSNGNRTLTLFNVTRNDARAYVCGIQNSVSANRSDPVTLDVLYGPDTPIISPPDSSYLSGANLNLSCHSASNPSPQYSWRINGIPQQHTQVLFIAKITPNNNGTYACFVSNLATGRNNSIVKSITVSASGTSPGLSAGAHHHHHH

[2] = biological target: T2, full-length human CD137 on cells (Hut78/huCD137, HEK293 transfectants, JK-NFKB-CD137) (human, UniProt Q07011 24-255); test: flow cytometry on Hut78/huCD137 cells
T2 construct: also called native CD137; TNFRSF9

human CD137 ECD-mIgG2a [3] = biological target: T3, human CD137 ECD-mIgG2a (human); test: SPR, A-CEAxCD137 format
T3 construct: ECD 24-183 of huCD137 fused to mouse IgG2a Fc; also called huCD137-mIgG2a; huCD137

[4] = biological target: T2, full-length human CD137 on cells …; test: cell-based or functional assay
[5] = biological target: T2, full-length human CD137 on cells …; test: cell-based or functional assay; remark: listed apart in the source
human CD137 ECD-mIgG2a [6] = biological target: T3, human CD137 ECD-mIgG2a; test: SPR, human CD137 ECD-mIgG2a
[7] = biological target: T4, full-length human CEA on cells (MKN45, LOVO, L929/huCEA, CT26/CEA, CT26-OS8-CEA) (human, UniProt P06731 35-685); test: flow cytometry on CT26/CEA cells
T4 construct: also called CEACAM5; native CEA
T4 sequence: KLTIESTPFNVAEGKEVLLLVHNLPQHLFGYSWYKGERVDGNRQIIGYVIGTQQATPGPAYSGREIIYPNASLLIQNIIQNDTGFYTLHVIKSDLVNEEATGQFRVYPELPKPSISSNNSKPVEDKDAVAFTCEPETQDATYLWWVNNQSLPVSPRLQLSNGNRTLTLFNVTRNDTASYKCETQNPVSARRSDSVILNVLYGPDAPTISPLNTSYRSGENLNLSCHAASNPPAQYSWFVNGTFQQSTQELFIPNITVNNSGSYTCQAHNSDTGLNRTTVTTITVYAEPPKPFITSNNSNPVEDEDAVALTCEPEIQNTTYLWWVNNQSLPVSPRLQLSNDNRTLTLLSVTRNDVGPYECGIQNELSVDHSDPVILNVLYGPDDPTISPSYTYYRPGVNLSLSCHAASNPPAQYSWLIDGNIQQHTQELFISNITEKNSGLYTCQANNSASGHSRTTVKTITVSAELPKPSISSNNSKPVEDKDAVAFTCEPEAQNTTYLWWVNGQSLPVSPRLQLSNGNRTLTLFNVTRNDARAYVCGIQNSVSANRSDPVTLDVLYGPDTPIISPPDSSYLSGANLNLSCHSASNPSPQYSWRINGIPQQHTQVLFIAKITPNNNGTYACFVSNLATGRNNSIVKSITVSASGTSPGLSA

[8] = biological target: T2, full-length human CD137 on cells …; test: flow cytometry on Hut78/huCD137 cells; remark: listed apart in the source
human CD137 ECD-mIgG2a [9] = biological target: T3, human CD137 ECD-mIgG2a; test: SPR, Fc fusion VH
[10] = biological target: T2, full-length human CD137 on cells …; test: flow cytometry on Hut78/huCD137 cells; remark: listed apart in the source
human CD137 ECD-mIgG2a [11] = biological target: T3, human CD137 ECD-mIgG2a; test: SPR, Fc-fusion VH captured

T3 sequence (chain, as listed by the source limits assumed): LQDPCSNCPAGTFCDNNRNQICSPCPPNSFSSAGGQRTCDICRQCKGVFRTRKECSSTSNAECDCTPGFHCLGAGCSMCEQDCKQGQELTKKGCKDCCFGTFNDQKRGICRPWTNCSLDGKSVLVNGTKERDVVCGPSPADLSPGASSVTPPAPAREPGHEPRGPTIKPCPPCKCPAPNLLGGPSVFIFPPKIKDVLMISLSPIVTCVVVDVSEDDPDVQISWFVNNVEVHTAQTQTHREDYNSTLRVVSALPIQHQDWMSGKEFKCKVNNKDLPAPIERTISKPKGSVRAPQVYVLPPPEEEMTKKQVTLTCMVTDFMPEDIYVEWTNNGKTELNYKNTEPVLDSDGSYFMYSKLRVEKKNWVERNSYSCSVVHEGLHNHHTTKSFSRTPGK
T2 sequence (Q07011 24-255 limits assumed): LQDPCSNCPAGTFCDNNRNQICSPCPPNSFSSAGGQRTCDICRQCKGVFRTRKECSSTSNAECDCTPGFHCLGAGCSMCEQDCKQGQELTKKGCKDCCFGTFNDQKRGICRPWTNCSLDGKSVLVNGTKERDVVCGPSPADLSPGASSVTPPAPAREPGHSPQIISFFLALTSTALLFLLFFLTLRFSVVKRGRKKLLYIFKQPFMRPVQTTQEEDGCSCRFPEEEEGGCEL

B1: BGA190 (antibody, V domains shown)
VH: DVQLVESGGGLVQPGGSRELSCAASGFTFSSFGMHWVRQAPERGLEWVAYISIGSDIIYYADTVKGRFTISRDNPKNTLFLQMTSLRSEDTAVYYCTRRSYRSYWYFDVWGAGTTVTVSS
VL: DIQMTQSPASLSASVGETVTITCRTSENIYSYLAWYQQKQGKSPHLLVYNAKTLAEGVPSRFSGSGSGTQFSLKIISLQPEDFGTYYCQHHFLSPWMFGGGTKLEIK
Does B1 bind [1]?
Result: binds

B2: BE-189 (Format A BGA-5623) (bispecific antibody, human IgG1, kappa)
heavy: QVQLVQSGAEVKKPGASVKVSCKASGYIFTSYYLHWVRQAPGQGLEWIGYINPQTGKTSYAQKFQGRVTMTRDTSTSTVYMELSSLRSEDTAVYYCAREYGNYNYPLDYWGQGTLVTVSSASTKGPSVFPLAPSSKSTSGGTAALGCLVKDYFPEPVTVSWNSGALTSGVHTFPAVLQSSGLYSLSSVVTVPSSSLGTQTYICNVNHKPSNTKVDKKVEPKSCDKTHTCPPCPAPPAAGPSVFLFPPKPKDTLMISRTPEVTCVVVDVSHEDPEVKFNWYVDGVEVHNAKTKPREEQYNSTYRVVSVLTVLHQDWLNGKEYKCKVSNKALAAPIEKTISKAKGQPREPQVYTLPPSREEMTKNQVSLTCLVKGFYPSDIAVEWESNGQPENNYKTTPPVLDSDGSFFLYSKLTVDKSRWQQGNVFSCSVMHEALHNHYTQKSLSLSPGKGGGGSEVQLLESGGGLVQPGGSLRLSCAASGFTVSAEDVGWVRQAPGKGLEWVSAILDKGGSTYYAESVKGRFTISRDNAKNTLYLQMSSLRAEDTAVYYCARIVYHAGGGVTFDTRGQGTQVTVSS
light: DIQMTQSPSSLSASVGDRVTITCRASENQYGYLAWYQQKPGKVPKLLIYNYKNLVEGVPSRFSGSGSGTDFTLTISSLQPEDVATYYCQHHLGTPYTFGQGTKVEIKRTVAAPSVFIFPPSDEQLKSGTASVVCLLNNFYPREAKVQWKVDNALQSGNSQESVTEQDSKDSTYSLSSTLTLSKADYEKHKVYACEVTHQGLSSPVTKSFNRGEC
notes: Module ratio 2:2, inert Fc
How did the EC50 [2] turn out when B2 was run?
The EC50 was 0.38 µg/mL.

And the Kd (human CD137 ECD-mIgG2a [3])?
The Kd was 94.8 nM.

What about the “Functional assay EC50 (PBMC cytokine release, in vitro CD137 activation)” value [4] of the same binder?
Its value is 0.31 µg/mL.

And the “Functions EC50 (PBMC cytokine release)” value [5]?
Its value is 0.341 µg/mL.

B3: A-CD137/CEA (Format A: BGA-4712 VH fused to the C-terminus of the Fc of the anti-CEA antibody) (bispecific antibody, human IgG1, kappa)
heavy: B2 heavy with T482M, V483L, K508F, E516D, A529S, S538N, I553V, T565Y, R566W, Q571L
light: B2 light
notes: Symmetric IgG-like molecule, inert Fc; also called A-CEAxCD137; A-CEA/CD137
How did the Kd (human CD137 ECD-mIgG2a [6]) turn out when B3 was run?
The Kd was 360 nM.

And the EC50 [7]?
Its EC50 is 0.75 µg/mL.

What about the EC50 [8] of the same binder?
Its EC50 is 0.57 µg/mL.

B4: D-CD137/CEA (Format D: BGA-4712 VH fused to the N-terminus of the heavy chain of the anti-CEA antibody) (bispecific antibody, human IgG1, kappa)
heavy: EVQLLESGGGLVQPGGSLRLSCAASGFMLSAEDVGWVRQAPGKGLEWVSAILDFGGSTYYADSVKGRFTISRDNSKNTLYLQMNSLRAEDTAVYYCARVVYHAGGGVTFDYWGQGTLVTVSSSGGGGSQVQLVQSGAEVKKPGASVKVSCKASGYIFTSYYLHWVRQAPGQGLEWIGYINPQTGKTSYAQKFQGRVTMTRDTSTSTVYMELSSLRSEDTAVYYCAREYGNYNYPLDYWGQGTLVTVSSASTKGPSVFPLAPSSKSTSGGTAALGCLVKDYFPEPVTVSWNSGALTSGVHTFPAVLQSSGLYSLSSVVTVPSSSLGTQTYICNVNHKPSNTKVDKKVEPKSCDKTHTCPPCPAPPAAGPSVFLFPPKPKDTLMISRTPEVTCVVVDVSHEDPEVKFNWYVDGVEVHNAKTKPREEQYNSTYRVVSVLTVLHQDWLNGKEYKCKVSNKALAAPIEKTISKAKGQPREPQVYTLPPSREEMTKNQVSLTCLVKGFYPSDIAVEWESNGQPENNYKTTPPVLDSDGSFFLYSKLTVDKSRWQQGNVFSCSVMHEALHNHYTQKSLSLSPGK
light: B2 light
notes: Symmetric IgG-like molecule, inert Fc; also called D-CEAxCD137
With B4 as the binder, how does the Kd (human CD137 ECD-mIgG2a [6]) read?
The Kd was 78 nM.

What about the EC50 [7] of the same binder?
The EC50 was 3.78 µg/mL.

And the EC50 [8]?
The EC50 was 2.28 µg/mL.

B5: Format A BGA-3386 (bispecific antibody, human IgG1, kappa)
heavy: B2 heavy with R566W, Q571L
light: B2 light
Which results are given for B5?
EC50 [2]: 0.21 µg/mL; Kd (human CD137 ECD-mIgG2a [3]): 21.4 nM; Functions EC50 (PBMC cytokine release) [5]: 0.0768 µg/mL

B6: BGA-4712-M3-mutFc (Fc fusion VH) (Fc fusion)
chain: EVQLLESGGGLVQPGGSLRLSCAASGFTLSAEDVGWVRQAPGKGLEWVSAILDFGGSTYYAESVKGRFTISRDNAKNTLYLQMSSLRAEDTAVYYCARVVYHAGGGVTFDYWGQGTLVTVSSGGGGSDKTHTCPPCPAPPAAGPSVFLFPPKPKDTLMISRTPEVTCVVVDVSHEDPEVKFNWYVDGVEVHNAKTKPREEQYNSTYRVVSVLTVLHQDWLNGKEYKCKVSNKALAAPIEKTISKAKGQPREPQVYTLPPSREEMTKNQVSLTCLVKGFYPSDIAVEWESNGQPENNYKTTPPVLDSDGSFFLYSKLTVDKSRWQQGNVFSCSVMHEALHNHYTQKSLSLSPGK
Which results are given for B6?
Kd (human CD137 ECD-mIgG2a [9]): 169 nM; EC50 [10]: 2.37 µg/mL; Kd (human CD137 ECD-mIgG2a [11]): 169 nM

B7: BGA-7556-mutFc (Fc fusion VH) (Fc fusion)
chain: B6 chain with W112R, L117Q
Which Kd (human CD137 ECD-mIgG2a [9]) does the source give for B7 here?
The Kd was 200 nM.

What about the EC50 [10] of the same binder?
Its EC50 is 5.71 µg/mL.

And the Kd (human CD137 ECD-mIgG2a [11])?
The Kd was 200 nM.

B8: BGA288 (antibody, V domains shown)
VH: EVLLQQSGPELVKPGASVKIFCKASGYTFTDYNIDWVQQSHGKSLEWIGDIGPNYGGTIYNQKFKGKATLTVAKSSSTAYMELRSLTSEDTAVYYCARRGSIPRAVDYWGQGTSVTVSS
VL: DIKMTQSPSSMYASLGERVTITCKASQDIHNYLSWFQQKPGKSPKTLIYRANRLVDGVPSRFSGSGSGQDYSLTISSLEYEDMGIYYCLQYDEFPYTFGGGTKLEIK
Does B8 bind [1]?
Result: binds
